According to US20170008949A1 (Hoffmann-La Roche, published 2017):

How the values were obtained:
[1] = target: recombinant non-glycosylated human PAI-1 (active), produced in E. coli as N-terminal 6xHis-tagged fusion … (human, UniProt P05121 24-402); assay: cell-based or functional assay
[2] = target: recombinant glycosylated human PAI-1 (active), produced in insect cells (human, UniProt P05121 24-402, glycosylated (sites not given)); assay: cell-based or functional assay
recombinant glycosylated human PAI-1 (active), produced in insect cells, sequence (P05121 24-402 limits assumed): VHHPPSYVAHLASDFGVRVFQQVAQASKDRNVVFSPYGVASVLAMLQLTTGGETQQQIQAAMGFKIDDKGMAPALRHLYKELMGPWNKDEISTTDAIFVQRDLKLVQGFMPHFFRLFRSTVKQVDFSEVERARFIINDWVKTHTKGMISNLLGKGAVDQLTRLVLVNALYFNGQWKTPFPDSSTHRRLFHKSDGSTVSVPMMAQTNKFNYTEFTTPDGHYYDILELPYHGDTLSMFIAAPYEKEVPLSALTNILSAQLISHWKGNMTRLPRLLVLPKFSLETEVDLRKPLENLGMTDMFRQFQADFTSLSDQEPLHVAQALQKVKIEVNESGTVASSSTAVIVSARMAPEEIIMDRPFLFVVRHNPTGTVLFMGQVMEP

recombinant non-glycosylated human PAI-1 (active), produced in E. coli as N-terminal 6xHis-tagged fusion …, sequence (P05121 24-402 limits assumed): as above

B1: PAI1-0046 (reference PAI-1 latency inducing antibody with a human IgG4 SPLE Fc-region) (antibody, V domains shown)
VH: QVQLVQSGAEVKKPGASVKVSCKASGYTFTNYGMNWVRQAPGQGLEWMGWINTYTGEPTYTDDFKGRFTMTLDTSISTAYMELSRLRSDDTAVYYCAKDVSGFVFDYWGQGTLVTVSS
VL: DIVMTQSPDSLAVSLGERATINCKSSQSLLNIIKQKNCLAWYQQKPGQPPKLLIYWASTRESGVPDRFSGSGSGTDFTLTISSLQAEDVAVYYCQQYYSYPYTFGQGTKLEIKR
- IC50 (µM) vs. human PAI-1, PAI-1 inhibition assay (residual rPA serine protease activity) [1]: 0.005 µM
- IC50 (µM) vs. human PAI-1, PAI-1 inhibition assay (residual rPA serine protease activity) [2]: 0.065 µM
